Results: the RNAGym collection of RNA variant scans (doi:10.7554/elife.80360)

B1: HDV Ribozyme (parent)
chain: GGCCGGCAUGGUCCCAGCCUCCUCGCUGGCGCCGGCUGGGCAACAUUCCGAGGGGACCGUCCCCUCGGUAAUGGCGAAUGGGACCCA

Variants of: B1
Test: self-cleavage, relative activity (ratio to wild type); higher = more cleavage; co-transcriptional

Row | Variant | self-cleavage
1 | G55U G67C | 1.06
2 | A56C A70U | 1.16
3 | A56C A70C | 1.12
4 | A56C A70G | 1.05
5 | A56U U72G | 0.734
6 | G55U C57G | 0.997
7 | A56G G73C | 0.38
8 | A56G G73U | 0.249
9 | G55U G68A | 1.03
10 | C57G C64G | 0.849
11 | C57G C64U | 1.05
12 | C57G C64A | 1.04
13 | C57G A70G | 0.856
14 | C57G C61G | 1.08
15 | G55U A78C | 0.18
16 | A56U U65G | 0.928
17 | A56U U65C | 1.04
18 | C57A U79G | 0.831
19 | G55C G82A | 0.447
20 | A56G U79A | 0.277
21 | A56G U79C | 0.242
22 | G55U U79A | 0.635
23 | A56G G67A | 1.09
24 | G55U G80A | 0.477

Row | Variant | self-cleavage
25 | C57A A70U | 1.25
26 | G55A U72G | 0.415
27 | A56G C75U | 0.17
28 | C57A G74U | 0.356
29 | G55U U72C | 0.703
30 | G55C G67A | 1.08
31 | G55C C63A | 1.06
32 | A56G A83G | 0.831
33 | A56G A83U | 0.684
34 | G55C A71G | 0.912
35 | C57G C84G | 0.831
36 | G55U C75A | 0.153
37 | A56U G59A | 0.926
38 | A56U G67A | 1.17
39 | A56U C66G | 0.997
40 | A56U C66A | 1.03
41 | G55U C64G | 0.781
42 | C57A U69C | 0.892
43 | C57A U69A | 0.969
44 | G55C C58U | 1.07
45 | G55C C58A | 1.15
46 | C57A C61G | 1.05
47 | C57A G80U | 0.253
48 | C57A G80A | 0.218

Row | Variant | self-cleavage
49 | A56G U72A | 0.643
50 | A56G U72C | 0.782
51 | G55U A83C | 0.554
52 | A56C C58G | 1.26
53 | A56C U65G | 0.985
54 | A56G C84G | 0.598
55 | G55A U79C | 0.511
56 | A56G U60G | 0.831
57 | A56C G80U | 0.253
58 | G55U G59U | 1.02
59 | A56U A70C | 0.811
60 | A56U A70G | 1.07
61 | C57A C58U | 1.05
62 | C57A C58G | 1.14
63 | G55U G74C | 0.208
64 | G55U G74U | 0.707
65 | G55C C61A | 1.06
66 | G55C U79G | 0.802
67 | A56G C86G | 1.17
68 | C57A C66G | 0.985
69 | G55C A77G | 1.1
70 | G55C A77C | 0.495
71 | C57A G67A | 0.926
72 | A56C U72A | 0.95

Row | Variant | self-cleavage
73 | G55U C66G | 0.901
74 | C57G G68A | 1.18
75 | G55C G81U | 0.256
76 | C57A A71U | 0.929
77 | A56G U65C | 1.05
78 | C57A U72C | 0.856
79 | C57A U65A | 1.09
80 | G55C C62U | 0.946
81 | G55C U65G | 1.06
82 | A56G C66U | 0.937
83 | A56G C66A | 0.909
84 | A56C A78G | 0.706
85 | G55C C86G | 1.09
86 | G55C C86U | 1.12
87 | C57G A78C | 0.0959
88 | A56C C86U | 1.03
89 | A56U G76U | 0.95
90 | A56U G76C | 1.14
91 | C57A A83U | 0.554
92 | A56U C58A | 1.16
93 | A56U C58G | 1.08
94 | A56U C75G | 0.151
95 | A56U C75A | 0.0875
96 | C57A A78G | 0.63

Row | Variant | self-cleavage
97 | G55U C61G | 1.11
98 | A56U C61U | 0.755
99 | A56G C61U | 1.08
100 | G55C G80C | 0.388
101 | G55C C57A | 1.06
102 | A56U G73C | 0.698
103 | A56U G73A | 0.752
104 | A56U G73U | 0.415
105 | A56C A87U | 0.986
106 | G55C A56C | 0.969
107 | G55C A56U | 1.01
108 | A56C C63G | 0.608
109 | A56U A77U | 0.623
110 | A56G G80U | 0.165
111 | A56U U69G | 0.959
112 | C57A C62A | 0.997
113 | A56G C63G | 0.59
114 | A56G C63U | 0.682
115 | A56G U69G | 0.831
116 | C57A A87C | 1.05
117 | C57A A87U | 1.13
118 | G55U A56U | 0.797
119 | A56G A77C | 0.199
120 | A56C A77G | 1.02

Row | Variant | self-cleavage
121 | G55U C58A | 0.843
122 | A56G G76C | 1.16
123 | C57A C85G | 0.748
124 | C57A C85A | 1.05
125 | A56U A83C | 0.499
126 | A56U A83U | 0.318
127 | C57A C84G | 0.727
128 | C57A C84A | 0.789
129 | C57G G67A | 0.909
130 | A56C C66G | 0.99
131 | A56C C66U | 0.861
132 | C57G C85U | 0.849
133 | G55U C62A | 0.973
134 | G55U C62U | 0.925
135 | G55C U60C | 1.07
136 | A56U C63A | 0.969
137 | C57G A71C | 0.852
138 | G55C G73C | 0.479
139 | A56G A87G | 0.929
140 | A56G A87U | 0.897
141 | A56C A71C | 0.997
142 | A56C A71U | 1.11
143 | A56U G81C | 0.312
144 | A56U G81U | 0.381

Row | Variant | self-cleavage
145 | A56U C57A | 0.966
146 | A56U C57U | 0.886
147 | A56U C57G | 1.08
148 | A56G G59U | 1.06
149 | C57A G82U | 0.585
150 | A56C C61U | 0.942
151 | A56C G73U | 0.521
152 | A56C G73A | 0.658
153 | C57A G76U | 1.16
154 | C57G C62A | 0.957
155 | G55U G81A | 0.287
156 | C57G C63U | 1.12
157 | C57G C63G | 1.09
158 | A56C C62A | 0.935
159 | C57A | 1.05
160 | C57G | 1.02
161 | A56G G74C | 0.125
162 | A56U G82U | 0.462
163 | A56U G82A | 0.543
164 | A56C C64G | 0.831
165 | A56C G82C | 0.306
166 | G55C C84A | 1.07
167 | G55C G68C | 0.752
